Drawing on publication PMC10928157, “The thymocyte-specific RNA-binding protein Arpp21 provides TCR repertoire diversity by binding to the 3’-UTR and promoting Rag1 mRNA expression”, this text covers Kd for one molecule.

The target in one data set is Arpp21 1-330 (UniProt Q9DCB4 1-330). Nature of the data set: ITC; 25 C, TCEP; 20 mM sodium phosphate pH 6.5, 300 mM NaCl, 2 mM DTT (TCEP instead of DTT for ITC); NMR 298 K, 10% D2O, 50 uM protein; ITC 25 C, 20 uM protein, 200 uM RNA in syringe. To be noted: protein: recombinant; tags: His-GB1 tag, TEV-cleaved.
Chain of Arpp21 1-330 (Q9DCB4 1-330): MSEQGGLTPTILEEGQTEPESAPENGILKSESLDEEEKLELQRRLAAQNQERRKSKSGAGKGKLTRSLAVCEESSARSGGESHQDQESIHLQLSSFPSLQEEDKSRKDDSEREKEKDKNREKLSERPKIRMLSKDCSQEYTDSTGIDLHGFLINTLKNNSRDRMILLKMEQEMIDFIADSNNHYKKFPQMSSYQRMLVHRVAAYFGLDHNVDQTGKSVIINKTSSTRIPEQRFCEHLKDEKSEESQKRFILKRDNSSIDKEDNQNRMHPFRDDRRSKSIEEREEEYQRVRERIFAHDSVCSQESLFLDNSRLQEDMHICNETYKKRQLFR
The target of a further data set is Arpp21 61-260 (UniProt Q9DCB4 61-260). The data set is described as follows: ITC; 25 C, TCEP; panel label, Methods and text say 61-260, legend says 130-260; 20 mM sodium phosphate pH 6.5, 300 mM NaCl, 2 mM DTT (TCEP instead of DTT for ITC); NMR 298 K, 10% D2O, 50 uM protein; ITC 25 C, 20 uM protein, 200 uM RNA in syringe. To be noted: protein: recombinant; tags: His-GB1 tag, TEV-cleaved.
Chain of Arpp21 61-260 (Q9DCB4 61-260): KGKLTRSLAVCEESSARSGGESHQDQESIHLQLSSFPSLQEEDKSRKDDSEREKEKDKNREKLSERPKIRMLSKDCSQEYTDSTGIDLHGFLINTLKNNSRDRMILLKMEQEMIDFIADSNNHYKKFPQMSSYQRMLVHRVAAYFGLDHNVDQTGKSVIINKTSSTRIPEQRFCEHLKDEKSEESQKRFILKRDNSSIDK

B1: U9 RNA (ssRNA)
RNA: UUUUUUUUU
As for B1, the figures for the Kd with Arpp21 1-330 and in the data set with Arpp21 61-260 were 4.7 µM and 4.8 µM, respectively.
